± gives the uncertainty stated by the source.

This series is described as follows: amyloid nucleation score (Sup35N fusion, yeast selection) (log enrichment); library NNK2; higher = more nucleation; inactive = no reads after selection. The method in brief: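 The nucleation score, computed with DiMSum, is the log enrichment of output over input reads, centred on the mode score of non-aggregating sequences. Sequences with under 100 input reads were dropped. Reads were generated by Illumina sequencing of plasmid inserts from psi-negative yeast with Sup35N fused to peptides of 20 random codons, induced with 100 μM copper sulfate for 24 hours and grown 7 days at 30°C on medium lacking adenine and uracil.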
SFGFVAMMIVRCANFRASPV returned an amyloid nucleation score of 0.688 ± 0.81.
SFGHHPDYRNVMVESYNRMV registered an amyloid nucleation score of 0.259 ± 0.23.
Under SFGNYRSVWYVTDVFAHIHL stands 8.335 ± 0.056.
For SFGWAYSVICLFIALTRTFL the value was -0.123 ± 0.26; for SFHSCNVS, -0.363 ± 0.74.
Turning to SFHWPSTGYKRVYFSPLLIV, the amyloid nucleation score result is “inactive”.
Under SFHYLYWIIRLVGRVYLDEG stands -0.195 ± 0.36.
For SFIVQHE the value was 0.16 ± 0.55; for SFIVRQGPTHKFVSECS, -0.887 ± 0.54.
Under SFIWEYNMYYTGLGRITWMP stands 0.922 ± 0.34.
The substance SFLDYRSLTVMFVAGQSTVR showed an amyloid nucleation score of -0.645 ± 0.53.
Under SFLRSNRGEVLPCNILNYVA stands “inactive”; under SFMDQHFS, -0.419 ± 0.63.
Under SFRANDNSFGCQWRRFLISG stands 0.032 ± 0.42; under SFSPFVYG, -0.868 ± 0.44; under SFSVVGNHHVCMDYDMVLNG, 0.315 ± 0.32.
Under SFVRPGGWPNK stands -0.264 ± 0.76; under SFYLLCLSFMSLCWASRLVV, 4.83 ± 0.073; under SFYRHGFTGNGTSVRGPDRS, 0.097 ± 0.79.
In turn, SFYSVTSPRWH displayed an amyloid nucleation score of 1.92 ± 0.17.
For SGARPVYFWLLIPLSYKL the value was 0.285 ± 1; for SGEARQH, -0.691 ± 0.49; for SGEVSAVRV, 0.852 ± 0.19.
For SGFLIRKHAKLYKPDQPLLV the value was 0.101 ± 0.54.
For SGFSLDLLVGGPCVPDLTVR, the amyloid nucleation score stood at 0.228 ± 1.
Under SGGAVAYREAKWWSASNLRS stands 0.373 ± 0.24.
For the substance SGHGLWLDAWCRLLDNRGYL, the amyloid nucleation score was -0.403 ± 0.44.
Under SGILLLRSLFGWPISERGHN stands 0.167 ± 0.56; under SGLPMYCSYRYHSRLGNTYR, 2.92 ± 0.064; under SGLTSIWQPTRTRMMSPSRR, 0.08 ± 0.79.
On to SGNGLLMCPMGSRTGRLFHR, for which the amyloid nucleation score amounted to 3.54 ± 0.061.
Consider SGNICIPFY, for which the amyloid nucleation score result was “inactive”.
Under SGPATLLPTLGYNGVIVFGN stands -0.444 ± 0.78.
As for SGSIVRGLCVVFSCVFKGSL, the amyloid nucleation score is -0.874 ± 0.56.
Under SGTYR stands “inactive”; under SGVLSLGGVQSWNSLLRWDN, -0.476 ± 0.44; under SGWTFGVQCLYTLVSMFLLC, 1.5 ± 0.12.
Under SGYCQDCSSGPFESDGINIS stands -0.321 ± 1; under SHAIHRCVGWFGVWTGTLFI, 3.69 ± 0.083.
Under SHDAYGIYRLQ stands 0.696 ± 0.38.
In turn, SHYPKGCHWGGLHSGDRKFP had an amyloid nucleation score of 0.892 ± 0.45.
Under SIFCGPDVVNTGPKLG stands 0.751 ± 0.6.
Under SIFRLDDEGDPVMREPLM stands 1.22 ± 0.59.
Under SIGNIVVLVEERSVRQPTLF stands 2.79 ± 0.14; under SIHEMYFKAMDSVH, -0.276 ± 0.62; under SILDATCCLGFYKVFAVGMK, -0.669 ± 0.44.
In turn, SILTVKQRTYVNGGRLYSRY returned an amyloid nucleation score of 0.005 ± 0.49.
For SINSSV the value was -0.166 ± 1.1.
For SINTAVSCFMAGICNGHRSE the value was 8.246 ± 0.061; for SIQRTVS, 0.473 ± 0.2.
For SIRSRLEFSFFL the value was 3.45 ± 0.047.
Regarding SISIPCRYYKGLRSTSLYSR, the amyloid nucleation score is -0.264 ± 0.26.
SIVYTLTCVL: the amyloid nucleation score was 4.945 ± 0.038.
For SIWLFYHILVFVLMPFAVAF the value was “inactive”.
For SIYKIILNSILPPHYNFLTY the value was -1.21 ± 1.
On to SKGNVV, for which the amyloid nucleation score was determined as 0.709 ± 0.42.
For SKNDCRVFPSDMHFWHDLVE the value was 0.351 ± 0.44.
For SKNLE the value was -2.09 ± 0.48.
Under SKPCWLFRNK stands -1.22 ± 1.1.
Consider SKPWKYNRFYLESSEWSSFC, for which the amyloid nucleation score was 1.47 ± 0.3.
For SKQTRYSSCGIISGLVDPFA the value was -0.329 ± 0.23; for SKRFIVIATLNTYMFQKLEF, “inactive”; for SKTMSKMNKDQLQHSMLHDP, -0.453 ± 0.45.
With SKTYRPCARLSFEHGRCNLV, the amyloid nucleation score came to 3.68 ± 0.11.
SKVFCTIFAWVVVE showed an amyloid nucleation score of 7.038 ± 0.033.
For SLACGNEKRFVMILSHI the value was 0.641 ± 0.74; for SLADDSGNRT, -0.289 ± 0.43.
Under SLAHQAFAEPSWTKVEE stands 0.278 ± 0.26; under SLAIAVNAMIHNIPADIWMH, 6.27 ± 0.083.
For SLARYAGGFRARSGKIFSVC the value was 0.802 ± 0.22.
In turn, SLCMHTAVFHS gave an amyloid nucleation score of 0.092 ± 0.32.
For SLDECHLSRRTNS the value was 0.411 ± 0.34; for SLENWLCAVPLCGESLEKVW, 0.469 ± 0.41.
Under SLFFFR stands 5.03 ± 0.06; under SLGCSAFR, -1.62 ± 0.62.
The substance SLGEKRFACLATSCCADDCT came in with an amyloid nucleation score of 0.508 ± 0.2.
Under SLKSAFQMKVISYLVEWLVS stands -0.6 ± 0.36; under SLLESLVAMLVGVQRVVDSR, 1.03 ± 0.51; under SLLIFMSFYYWLQVSYRPPR, -1.3 ± 1.1.
In turn, SLLRLIFMLRRGDIHGYCRG had an amyloid nucleation score of 5.84 ± 0.084.
Under SLMDLDFPLTSR stands -0.334 ± 0.61; under SLMLQ, 0.706 ± 0.81; under SLNISCYWHLKFVMRAWHTW, -0.465 ± 1.
Under SLNLGRLYDLSMMLAWLGHQ stands 2.16 ± 0.17; under SLNPTRSWMRFNINKAHFLL, -0.204 ± 0.48; under SLQFPISVNTYGDESCNSTV, -0.424 ± 1.1.
Under SLRIYGYMDRKSPKESSNFR stands 0.975 ± 0.37; under SLRLCLDTMEFRVFKNLGRV, 1.45 ± 0.099; under SLSGRLMNFYIMQNSIPTWW, 6.792 ± 0.041.
SLSHRADACVTS registered an amyloid nucleation score of -0.647 ± 0.64.
The substance SLSKKMFRCRS showed an amyloid nucleation score of 3.4 ± 0.12.
Under SLSQMRLSVLSNKDHSIEL stands 7.964 ± 0.056; under SLSRNGTVFARFRVSTSRCL, 4.23 ± 0.057; under SLSWQNPCLMFMDNMADMIS, -0.006 ± 0.54.
In turn, SLSYATTFF showed an amyloid nucleation score of 0.476 ± 0.24.
As to SLTVFHLKYMSQNIKAE, the amyloid nucleation score is -0.797 ± 1.
For SLVSKIRLRGAWINSGVKTG the value was 0.923 ± 0.17; for SLVTLWLGANAR, 0.175 ± 0.26.
Under SLWRNHMMQ stands 0.746 ± 0.4.
Under SLWTYRARTKGCHYVHSVLM stands 0.164 ± 1.1; under SLWYFCRPIGGI, -0.391 ± 0.29.
In turn, SMADFIV yielded an amyloid nucleation score of -0.767 ± 0.76.
For SMFNCNWYCGCCMCNLGCLA the value was 7.334 ± 0.035.
Under SMGFSSVPHSYTCTVEQG stands 6.06 ± 0.07.
Under SMNVYVDGFCWLAHVLNVVW stands 6.928 ± 0.035.
As to SMPWYMYCIVYYVDVYCCNI, the amyloid nucleation score came out at 6.566 ± 0.039.
SMRFVLAF returned an amyloid nucleation score of -1.92 ± 0.77.
Turning to SMSMYTPNFFDFVVVRPTIY, the amyloid nucleation score result is “inactive”.
For SMTRLLGRDGYTREYSSSSR the value was 0.834 ± 0.55; for SMVKKLQMESPAFSVGIFWV, 7.74 ± 0.085.
As for SMVVGMGSCPNVTRGAGLKR, the amyloid nucleation score amounted to 1.06 ± 0.17.
For SMYDAGIFVGYCLRGFLYDC the value was “inactive”; for SMYLTETRLHCHDWSAAAWG, 0.663 ± 0.21; for SNCSLMGYCMYAYNGSDTGC, 4.58 ± 0.11.
Under SNCSPLATMDCSPDFMSTF stands -0.121 ± 1.1; under SNGINN, “inactive”.
Under SNHLIVMISVFYFKSVRI stands “inactive”.
In turn, SNIGCRKIWTSLRSMDLIIG showed an amyloid nucleation score of -0.006 ± 0.65.
Consider SNIRISTADDSNSFLPFSSA, for which the amyloid nucleation score was -0.315 ± 0.43.
For SNLEHSGWRTRMRWGL the value was 5.5 ± 0.079.
Under SNLSRDESRVGSTGEQGDGG stands -0.38 ± 0.55.
For SNMASIFTPKRSFNSEVENQ the value was -1.31 ± 0.61; for SNRCLIIFLILC, 5.92 ± 0.077.
In turn, SNRRKSAGDSFVRWMCCLT registered an amyloid nucleation score of 2.61 ± 0.15.
Under SNSCTPAGLETGNLK stands “inactive”; under SNSHNSRSIAY, 0.475 ± 0.57; under SNSQMKAAMVGCNLRGMEQA, 0.689 ± 0.57.
For SNVSKYTKRGDM the value was -0.184 ± 0.33; for SPALKPLGRMEYGVSGR, 0.072 ± 0.29.
Under SPCLDGDRHVGSQMLSPLSW stands 0.919 ± 0.33; under SPGIITCGYKLLDG, 1.69 ± 0.27; under SPRRFLMKQGIHQVTLAHCH, -0.342 ± 0.76.
As to SPTGPMYRNLLSKKPYVR, the amyloid nucleation score was -0.909 ± 0.35.
Under SPWCPQLSTGGCSNLGSLRR stands 0.612 ± 0.31; under SPYHKANGHKNVARLYFRWR, 0.731 ± 0.41.
Turning to SQFLIMTEDR, the amyloid nucleation score was 0.123 ± 0.34.
Under SQIWFTVTYGQYCYYIVSL stands -0.33 ± 0.33; under SQSKDMMCLSGSYSYYTACA, -1.21 ± 0.78.
For SQVGTW the value was 0.795 ± 0.41.
SREVRNANPSSGDDGSIRVE yielded an amyloid nucleation score of -0.02 ± 1.1.

Source of the values: the supplement of paper PMC12042874.
